Data published in PMC10143413, “Proteomic Profiling of Mouse Brain Pyruvate Kinase Binding Proteins: A Hint for Moonlighting Functions of PKM1?” (International Journal of Molecular Sciences, 2023).

Biological target: T1, Pyruvate kinase PKM1, purified from rabbit skeletal muscle (rabbit, UniProt P11974-1 1-531)
T1 construct: Pyruvate kinase PKM, isoform M1, rabbit skeletal muscle; called full-length PKM1; amine-coupled to a CM5 chip or used as analyte in SPR; also called full-length PKM1; PK1; source: isolated from skeletal muscles of adult rabbits, electrophoretically homogeneous
T1 sequence (P11974 whole entry, canonical isoform): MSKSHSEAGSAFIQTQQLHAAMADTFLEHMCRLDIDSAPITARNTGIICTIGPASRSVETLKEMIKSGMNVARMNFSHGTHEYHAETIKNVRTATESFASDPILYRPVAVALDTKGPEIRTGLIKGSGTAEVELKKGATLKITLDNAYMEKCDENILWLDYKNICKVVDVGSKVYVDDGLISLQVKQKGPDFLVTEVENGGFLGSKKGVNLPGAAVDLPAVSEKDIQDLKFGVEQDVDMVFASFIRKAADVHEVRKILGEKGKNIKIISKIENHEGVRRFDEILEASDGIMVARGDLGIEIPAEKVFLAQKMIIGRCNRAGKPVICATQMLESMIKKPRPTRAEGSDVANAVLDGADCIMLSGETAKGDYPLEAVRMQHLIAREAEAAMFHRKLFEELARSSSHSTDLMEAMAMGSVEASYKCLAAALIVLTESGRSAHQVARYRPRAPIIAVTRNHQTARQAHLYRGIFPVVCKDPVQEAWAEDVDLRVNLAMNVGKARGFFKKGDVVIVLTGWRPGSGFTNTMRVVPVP
Assay: SPR; Biacore T200, 25 °C; GAPDH, LDH or aldolase A amine-coupled to a CM5 chip, PKM1 as analyte in 0.05 M potassium phosphate buffer pH 7.4, 10 µL/min for 5 min; global fit to the 1:1 binding model
Details: both partners purified

Kd: 1060 nM | koff: 0.00162 s⁻¹ | kon: 1530 M⁻¹ s⁻¹
B1: Glyceraldehyde 3-phosphate dehydrogenase, purified from rabbit skeletal muscle (enzyme)
chain: not shown
notes: Glyceraldehyde-3-phosphate dehydrogenase, rabbit skeletal muscle; also called GAPDH; GAPD; source: isolated from skeletal muscles of adult rabbits, electrophoretically homogeneous
